Laboratory results from paper PMC9881158, “The DEAD-box protein Dbp6 is an ATPase and RNA annealase interacting with the peptidyl transferase center (PTC) of the ribosome” (Nucleic Acids Research, 2023).

Legend:
Dbp6 M-I [1] = target: T1, Dbp6 M-I (Saccharomyces cerevisiae, UniProt P53734 1-629, K240A); experiment: EMSA; 0.5 uM protein; stronger than WT; EMSA: 1 nM 32P-RNA, RB 1x (composition not in the material), RNasin, 15 min at 30 C, native PAGE in TBE; bridging: 0.8 uM Dbp6, RB 1x, 15 min at 30 C; conditions: protein: recombinant; tags: N-terminal His6; chain copies: 2; label: 32P
T1 sequence: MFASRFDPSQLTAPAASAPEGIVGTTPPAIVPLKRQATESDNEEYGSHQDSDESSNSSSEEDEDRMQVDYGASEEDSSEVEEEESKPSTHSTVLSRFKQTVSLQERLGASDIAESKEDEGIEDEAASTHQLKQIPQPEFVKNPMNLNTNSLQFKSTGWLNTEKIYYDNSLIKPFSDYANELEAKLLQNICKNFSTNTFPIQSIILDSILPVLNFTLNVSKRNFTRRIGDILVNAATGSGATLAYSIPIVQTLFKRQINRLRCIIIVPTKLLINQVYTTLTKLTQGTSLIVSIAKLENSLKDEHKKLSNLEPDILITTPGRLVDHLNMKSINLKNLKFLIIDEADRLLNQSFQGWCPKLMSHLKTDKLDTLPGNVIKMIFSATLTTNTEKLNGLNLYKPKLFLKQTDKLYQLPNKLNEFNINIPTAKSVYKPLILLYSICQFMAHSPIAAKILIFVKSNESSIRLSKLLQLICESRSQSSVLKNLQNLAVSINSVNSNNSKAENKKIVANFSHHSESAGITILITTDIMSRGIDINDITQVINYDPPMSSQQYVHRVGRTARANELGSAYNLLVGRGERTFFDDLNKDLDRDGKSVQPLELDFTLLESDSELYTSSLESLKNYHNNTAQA

Dbp6 ΔN [2] = target: T2, Dbp6 ΔN (Saccharomyces cerevisiae, UniProt P53734 1-629, del24-128); experiment: EMSA; 0.5 uM protein; like WT; EMSA: 1 nM 32P-RNA, RB 1x (composition not in the material), RNasin, 15 min at 30 C, native PAGE in TBE; bridging: 0.8 uM Dbp6, RB 1x, 15 min at 30 C; conditions: protein: recombinant; tags: N-terminal His6; chain copies: 2; label: 32P
T2 sequence: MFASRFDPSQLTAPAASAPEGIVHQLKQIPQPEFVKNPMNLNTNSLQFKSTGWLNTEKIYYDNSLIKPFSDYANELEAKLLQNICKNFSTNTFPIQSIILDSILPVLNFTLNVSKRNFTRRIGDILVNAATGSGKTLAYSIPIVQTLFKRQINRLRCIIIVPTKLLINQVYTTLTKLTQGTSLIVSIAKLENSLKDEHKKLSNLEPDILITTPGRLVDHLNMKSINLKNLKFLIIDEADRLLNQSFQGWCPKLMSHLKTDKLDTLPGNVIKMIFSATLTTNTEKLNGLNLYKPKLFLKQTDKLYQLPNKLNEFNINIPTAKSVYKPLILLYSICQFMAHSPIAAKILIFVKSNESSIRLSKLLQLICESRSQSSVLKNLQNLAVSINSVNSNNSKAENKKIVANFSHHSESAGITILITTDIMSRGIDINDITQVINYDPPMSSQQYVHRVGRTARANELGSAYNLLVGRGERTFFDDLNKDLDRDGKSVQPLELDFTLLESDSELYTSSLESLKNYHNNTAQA

Dbp6 M-II = target: T3, Dbp6 M-II (Saccharomyces cerevisiae, UniProt P53734 1-629, E342A); experiment: EMSA; 0.25 uM protein; stronger than WT; EMSA: 1 nM 32P-RNA, RB 1x (composition not in the material), RNasin, 15 min at 30 C, native PAGE in TBE; bridging: 0.8 uM Dbp6, RB 1x, 15 min at 30 C; conditions: protein: recombinant, tags: N-terminal His6, chain copies: 2
T3 sequence: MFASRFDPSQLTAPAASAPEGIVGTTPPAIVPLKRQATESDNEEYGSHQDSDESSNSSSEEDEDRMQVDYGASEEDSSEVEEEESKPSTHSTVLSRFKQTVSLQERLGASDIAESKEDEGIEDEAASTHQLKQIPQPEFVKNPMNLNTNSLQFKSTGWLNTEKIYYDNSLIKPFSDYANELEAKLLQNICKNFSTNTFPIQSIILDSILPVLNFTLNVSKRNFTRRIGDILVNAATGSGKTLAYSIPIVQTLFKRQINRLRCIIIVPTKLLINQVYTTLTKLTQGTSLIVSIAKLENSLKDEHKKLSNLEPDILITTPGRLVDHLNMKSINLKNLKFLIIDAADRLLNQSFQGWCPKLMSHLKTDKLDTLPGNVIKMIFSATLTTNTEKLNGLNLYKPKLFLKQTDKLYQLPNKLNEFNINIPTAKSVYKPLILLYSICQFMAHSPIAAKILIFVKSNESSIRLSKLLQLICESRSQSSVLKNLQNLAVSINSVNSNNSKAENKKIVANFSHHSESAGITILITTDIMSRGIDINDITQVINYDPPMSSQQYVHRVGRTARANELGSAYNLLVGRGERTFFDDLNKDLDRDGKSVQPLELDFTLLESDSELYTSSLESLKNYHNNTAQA

Dbp6 ΔN [3] = target: T2, Dbp6 ΔN; experiment: EMSA; 0.25 uM protein; like WT; EMSA: 1 nM 32P-RNA, RB 1x (composition not in the material), RNasin, 15 min at 30 C, native PAGE in TBE; bridging: 0.8 uM Dbp6, RB 1x, 15 min at 30 C; conditions: protein: recombinant; tags: N-terminal His6; chain copies: 2; label: 32P on ss38-mer; 3' overhang 20 nt on strand 1; 38 bp region with one C-C mismatch
Dbp6 M-I [4] = target: T1, Dbp6 M-I; experiment: EMSA; 0.25 uM protein; not increased over WT; EMSA: 1 nM 32P-RNA, RB 1x (composition not in the material), RNasin, 15 min at 30 C, native PAGE in TBE; bridging: 0.8 uM Dbp6, RB 1x, 15 min at 30 C; conditions: protein: recombinant; tags: N-terminal His6; chain copies: 2; label: 32P on ss38-mer; 3' overhang 20 nt on strand 1; 38 bp region with one C-C mismatch

Measured: binding result

CAGAACCGCUACACUGAAAUGAUCAAUUCCGGUCUCCC (ssRNA) [ss38-mer]
binds: Dbp6 M-I [1] | Dbp6 ΔN [2] | Dbp6 M-II; label: 32P

B1: ds38/58 hemi-duplex (dsRNA)
RNA 1: GGGAGACCGGAAUUCAUCAUUUCAGUGUAGCGGUUCUGACGUGCAAAUCGAUCGUCGA
RNA 2: CAGAACCGCUACACUGAAAUGAUCAAUUCCGGUCUCCC
binds: Dbp6 ΔN [3] | Dbp6 M-I [4] | Dbp6 M-II; label: 32P on ss38-mer, 3' overhang 20 nt on strand 1, 38 bp region with one C-C mismatch
